Reference: a protein production outcome set (Wang et al. 2014)

Assay: label from the status in PepcDB records

Row | Sequence | protein production
1 | MTRTVTGDTVQTRWGPVQVRVTVRNGVITEVTAVACPQENPKDREINSYAIPQLRREALAAQSAQIDSVSGATYTSDGYRQSLQSALDSAGLLEHHHHHH | not failed
2 | MELMKKFTSYTCSPIFVVVACAICLLVGFSINSSIIEIFASVMGIINVWLLSREKVSNFIFGIITVVAYLYIYYNTGLYALAVLACFQVGFNIFGWYYWVKNSDQEDNVVTSGLTKKGQILWTIIILAAWAVWGYVEINILHAQNAILDSLTAVLGLVAQYWLSKKLYENWILWILSNILFIIIYILNGYYVMLILVAIQLILSISGLLEWYASFKEQGENKLTL | failed
3 | MACHGFLGKPTPKSFGRHHKHARKNRNHQSRCLAAAVAAAGSIFTSLNMSIFTFHNRLLRCVSRFLRLATTSSATPTRRPTMKQGYKKLHKREPLIRRNDKKRTIFLDLDETLVHSTMEPPIRVNVDFMVRIKIEGAVIPMFVVKRPGVTEFLERISKNYRVAIFTAGLPEYASQVLDKLDKNRVISQRLYRDSCTEVNGRYAKDLSLVAKNDLGSVLLVDDNPFSYSLQPDNGVPIKPFMDDMEDQELMKLAEFFDGCYQYEDLRDAAAELLSSKLI | failed
4 | MFADTCGFMNRSPEHIFGSPEIDYSDVSTGYLEDALIESGERSKRRRLLFEDPSKSFNDDDSQNDWGLHESYSCLNSQFVTPHVNTGERISGVSYCQETISNVYESPDTSVSYDKIYVREKSPTEPSSSNCGNKNKRLITKLVYPFGLVKPGGRENDVTLNDINERILMAPSRPIRHPVGDFASRPCVSGRGPGLSGKAVVALTKIQTQGRGTITIIRTKG | failed
5 | MKDVIVIGAGPSGSFAAYRLAKAGFTVDILEEHREVGKPVECTGLVSQRVLKYVRTKSIAGTVRGANIFFPNGKSVHIEKDDPTIVLFRDAFDKDVAAMAIGAGSGIRINARALSVTEHDDHVTVRYRENGSIKEEDARIVIGADGINSVVRRDVYGMRQKHVVSTLQYDMASGIEDEDSVNVYLGSQYTHGFFGWAVPGGDIVRVGTGSYKASARPYMDNLSRRFGDNRTLGITGAGIPIRMAERLSSRRTVLVGDAGGIVKPLSGGGIYTGIFSSDVAANYVVEALESDSSEASLRKYDREIRNTIGKELKKDAMIQRIYSRISDRSFNRIYSMISNEKIIDVINRSGDIDYPSTVIIKVLLRNPGILYSMWKLEHHHHHH | failed
6 | MTSSSQRLALLEAVVEQSFNAVLITDANLANGGPLIVYVNPAFCTMTGYTAEELIGLSPRILQGADTDPQVIERLRQCLSERLFFEGSTVNYRADGSPYVVEWKITPVRDDAGQVCNFVSVQQNISPRIRAEREQHLLAQALNAAFDPIIITDRNSTIVFANEAFQLITGYSAPEIIGQNPRMLRSGKHDALFYAQFNESLASGEPFRTTFINKRKDGSLFYAEHSISPLRNVEGAMTHYVSISQDVTTRLGREQKLLEIAHSDTLTGLDNRRAAEHTLERLINTARMAGKPFSFIICDIDHFKSVNDRYGHPAGDSVLKSVAAILKHRIRAFDVAARWGGEEFLILVPDSSLKQAAELAERVRKGVESLEIPEAGPVTISLGVAELSPGETAASLIQRADKVLYQAKRLGRNRVEIAQADDPAY | failed
7 | MDVQFAILAFTSLFSILNPFGVIPTYLVLTSQYSKVEKIKIIRKSMLAAFIILMMFALLGNQIIGFFGISIPAIKITGGVLLFLIALDMIQGNTSKVEKSPKLESHLKSHAEEIEEMDEIAIVPLTVPLLTGPGSISAVIAMMAQTSDFDGKISVIIAISLCIIISYFVLKFSKDLEKMLGKIGFKVLTKMMGLVLTAISIQMALDGILMVFG | failed
8 | MSQSSECARPHRRGFDFCASAVFLCTQRAQSVGGCAMRGCPLLLWRPETCQNPAPFCRGFAAQGFTAVSVVSRAVTKTTFFDENLIERVLWQFTMKEQRANAIPATCRYARYSANPTPTPRPVKINESDRTMNFEEKIATHYGHGNLTAAIRSGLQAQGITPEQASVEDLGPVDEFHIGGRAATVHFFDQIDLSETSKALDIGCGLGGAARYAAHSFGSQIEGIDLTPEYVETGGALCQWVGLSDKVNLSVASALSMPFESGDFDIAYMMHVGMNIEDKRALFKEVARVLKPGGTFAIYDIMRSNDEDLVYPVPWASSAETCCLAGPATYRAALEEGGFVVRQENDRRDFAIDFFEKMKKANAGQKSPPPLGLHVLMQQTTAEKIPNMIANLQAGRIKPVEIYAVKQ | failed
9 | MFYFMTLSFIIMPALGCFLIGLVLAKSDRWTFSWILSLIGLVAFISSFWHIERADLWFMLSYSFGPFLMGFGFTWDLSNKRRMQLLLLGLFFLIFFMILYYLIVRILNTAVV | failed
